Test system: MS2 coat protein
Assay: apparent KD of MS2 coat protein; higher = weaker reporter binding
Conditions: Eterna round: R107
Description: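 RNA-MaP round R107: designed RNA switches with theophylline, tryptophan, arginine or FMN aptamers are transcribed on-chip within common flanks. They are titrated with SNAP-549-labelled MS2 coat protein in RNA-MaP buffer (100 mM Tris pH 7.5, 80 mM KCl, 4 mM MgCl2), without ligand or with the indicated ligand. Median apparent KD per design.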

[1] = input ligand: theophylline 20 uM
[2] = input ligand: theophylline 2 mM
[3] = input ligand: tryptophan 2.4 mM

Row | Sequence | apparent KD of MS2 coat protein (input ligand: arginine 13.2 mM) [nM] | apparent KD of MS2 coat protein (input ligand: none) [nM] | apparent KD of MS2 coat protein [1] [nM] | apparent KD of MS2 coat protein [2] [nM] | apparent KD of MS2 coat protein [3] [nM]
1 | ACAUGAGGAUCACCCAUGUCAUGAGGUUCACGAGGACCGGUACGGCCGCCACUCGACAUGAGGGUCACCCGUGAAGGGAACACCC [xdmullin] | 18.1 | 22.7 | 29.8 | 42.9 | 17.9
2 | ACAUGAGGAUCACCCAUGUGAAGCAGGGUACGAGGACCGGUACGGCCGCCACUCGAGCAUUAUAACGAGUGAAUGGCAACGAUGU [whbob_Ex_trypto A_2s16] | 11.7 | 12.4 | 19 | 17.4 | 12.8
3 | ACAUGAGGAUCACCCAUGUGGAGCAGGGUACGAGGACCGGUACGGCCGCCACUCGAGCGUUAUGACGAGUGAAUGGCAACGAUGU [whbob_X-Trypto_A_V1.0] | 9.93 | 10.5 | 15.9 | 12.5 | 12.1
4 | ACAUGAGGAUCACCCAUGUGGCGUCUUGAUACCAGACCCGAAGUAGUCCCUUGGCAGCAACUACGUGAGGGUCGCCCAUGUGUAG [k'kmullin] | 23.5 | 30.4 | 40.8 | 40.9 | 25.5
5 | ACAUGAGGAUCACCCAUGUGUGUAAAUCCUCGAGGACCGGUACGGCCGCCACUCGAACGAGUGUAAGAUGAAUGUUACAUUCAUC [SS Trp A s2] | 70.8 |  | 134 | 116 | 
6 | ACAUGAGGAUCACCCAUGUGUGUAAGUCCUCGAGGACCGGUACGGCCGCCACUCGAACGAGUGAAGCCUGAUACUAAGUAUCAGG [SS Trp A s5] | 99.6 | 15.4 | 20.7 | 14.4 | 18.7
7 | ACAUGAGGAUCACCCAUGUGUGUAAGUCCUCGAGGACCGGUACGGCCGCCACUCGAUUGAGUGUAAGUUGAAUGUAACAUUCAAC [whbob_SS_trypto A_2s10] | 16.4 |  | 22.8 | 18.1 | 
8 | ACAUGAGGAUCACCCAUGUUAUUUACCGAAGGAGCGGGUAUAUACCCAGGUAGGUCGCGGACAACAUGAGGAUCACCCACAUGAG [AstrosSSArgA#21] | 45.5 | 28.5 | 53.4 | 71.4 | 27.8
9 | ACAUGAGGAUCCGAUACCAGCCACAUGAGGAUCACCCAUGUAGUACAUGAGGAUCACCCAGGCCCUUGGCAGCGGACAUGAGGAU [Exclusion - Theophylline B] | 95.9 |  | 331 |  | 149
10 | ACAUGAGGGCGAAGGAGCGCGAACAUGAGGAUCACCCAUGUCUAUAUCCGUCCGCAUGUAUCGCAGGUAGGUCGCGCUGUUACUU [#13 Exclusion - Arginine B] | 8.99 | 8.6 | 11.4 | 8.5 | 8.52
11 | ACAUGAGGGCGAAGGAGCGCGUACAUGAGGAUCACCCAUGUCUAUAUCCGUCCGCGUGUAACGCAGGUAGGUCGCGCUGUUAAUU [#14 Exclusion - Arginine B] | 15.4 | 16 | 21.6 | 20 | 16.2
12 | ACAUUGCGCUCGGCCGCCACUGGCUAUAGAUUUAUAGCAUUAAUGAACAUGAGGAUCACCCAUGUCAGGACCGGGAGCGAACCAU [SSTryp B #8] | 12.1 |  | 17.2 | 13.2 | 
13 | ACAUUUAACUGAAGGAGCGUGAUAAACAUGAGGAUCACCCAUGUACCACAGAUUCUUAGAUCACAGGUAGGUCGCAGACUAAUGA [JR_ExcArginiB_Sub013] | 11.2 | 11.7 | 13.7 | 12.6 | 12.4
14 | ACAUUUAACUGAAGGAGCGUGAUAUACAUGAGGAUCACCCAUGUGUCUUACAUGAAUAAUUCACAGGUAGGUCGCAGACUAAUGA [JR_ExcArginiB_Sub009] | 30.5 | 26.7 | 33.7 | 39.4 | 32.1
